# How the values were obtained:
# [1] = molecular target: Recombinant human laminin‐332 (human) (UniProt Q16787); experiment: SPR; BIAcore 3000, 25 °C; laminin-332 immobilised on a CM5 chip (approx. 5000 RU); vWFA2 as analyte, 2.5-420 µM; running buffer 10 mM sodium phosphate pH 7.4, 150 mM NaCl; binding isotherms
# [2] = molecular target: Recombinant human laminin‐332 (human) (UniProt Q16787); experiment: SPR; as a1, with MgCl2 added to the running buffer to 2.5 mM
Substance,Kd [1] [µM],Kd [2] [µM]
untagged vWFA2 (vWFA2 lacking any tag residues) of murine type VII collagen (from UniProt Q63870 1048-1238) (domain or fragment),440,
"vWFA2 subdomain (amino acids 1048–1238) of murine type VII collagen, purified by intein cleavage (from UniProt Q63870 1048-1238) (domain or fragment)",810,1100

# Reference: PMC7137805
